This note sets out measurements from patent US20130095097A1 (EMERGENT PRODUCT DEVELOPMENT SEATTLE, published 2013).

For orientation: koff means the rate constant with which the complex falls apart. What is called kon is the rate constant with which the complex forms.

For assay [1], the target named is T1, CD28 mIg (UniProt P10747 19-152). The assay can be described thus: SPR, CD28-mIgG immobilized, kinetic KD (kd (I)/ka (I)). As for the experimental part:
(§1) Surface plasmon resonance (SPR) measurements were performed on a Biacore T100 SPR using HBS-P+ (GE Healthcare) as a running buffer. CD28-mIgG (25 μg/mL in 10 mM sodium acetate, pH 4.0) was directly immobilized onto a CM5 chip using standard amine coupling chemistry (Biacore Amine Coupling Kit, GE Healthcare), with final immobilization levels between 800 and 1900 Ru (resonance units). 2E12 binding domain constructs were injected at 25° C. or 37° C. for 150 seconds at a flow rate of 30 μl/min in a series of concentrations from 10 nM to 1 μM. Dissociation was monitored for 1200 seconds, and the surface was regenerated by injecting 50 mM NaOH for 60 seconds. Binding interactions with the surface were stable through at least 60 regeneration cycles. Data were analyzed using BiaEvaluation for the T100 software (version 2.0, GE Healthcare).
(§2) Surface plasmon resonance was used to measure binding of immobilized CD28 by 2E12 binding domain constructs. […] Binding kinetics of the bivalent 2E12 constructs (e.g., 2E12 mAb, FIGS. 27A-27B) to immobilized CD28 could not be fit to a 1:1 Langmuir binding model, but could be fit with high accuracy to a bivalent analyte binding model (Table 5). Equilibrium dissociation constants (1(D) could be calculated with high accuracy for each construct by fitting the observed response at saturation to a steady-state equilibrium model (Table 5).
In general terms: Surface plasmon resonance follows binding to a sensor surface in real time, without labels.

Assay [2] concerns the target T1, CD28 mIg. The assay can be described thus: SPR, CD28-mIgG immobilized, steady-state equilibrium KD. The protocol: as §1, §2
The target of assay [3] is T1, CD28 mIg. Description: SPR, CD28-mIgG immobilized, 1:1 Langmuir model, kd (I). As for the experimental part:
as §1, §2

For assay [4], the target named is T1, CD28 mIg. Description: SPR, CD28-mIgG immobilized, 1:1 Langmuir model, ka (I). As for the experimental part: as §1, §2
A further assay concerns the target T2, CD28 on Jurkat T cells (UniProt P10747 19-220, limits assumed).
T2 construct: whole, on cells; also called Jurkat cells; Jurkat T cell lines
The assay can be described thus: flow cytometry on Jurkat cells.

Assay [5] addresses T3, CD28 mIg (UniProt P10747 19-152).
T3 construct: Coated on ELISA plates and amine-coupled to a CM5 chip; also called CD28-mIgG; immobilized CD28
Description: SPR, CD28-mIgG immobilized, steady-state equilibrium KD. The protocol: as §1, §2

The target in assay [6] is T3, CD28 mIg. Description: SPR, CD28-mIgG immobilized, kinetic KD, bivalent analyte model, initial binding at the first site only. As for the experimental part:
as §1, §2

The target of assay [7] is T3, CD28 mIg. The assay can be described thus: SPR, CD28-mIgG immobilized, bivalent analyte model, first on rate ka (I). As for the experimental part:
as §1, §2

The target in assay [8] is T3, CD28 mIg. Description: SPR, CD28-mIgG immobilized; reference 2E12 SMIP (M0039). As for the experimental part: as §1, §2
Assay [9] has as its target T3, CD28 mIg. The assay can be described thus: SPR, CD28-mIgG immobilized, bivalent analyte model, second off rate (avidity). The protocol:
as §1, §2

Assay [10] addresses T3, CD28 mIg. Description: SPR, CD28-mIgG immobilized, bivalent analyte model, second on rate (avidity). The arrangement: unit not given here. As for the experimental part: as §1, §2
Assay [11] has as its target T3, CD28 mIg. Description: SPR, CD28-mIgG immobilized, bivalent analyte model, first off rate kd (I). As for the experimental part:
as §1, §2

B1: 2E12 single-chain variable fragment (scFv) (scFv)
scFv: QVQLKESGPGSVAPSQSLSITCTVSGFSLTGYGVNWVRQPPGKGLEWLGMIWGDGSTDYNSALKSRLSITKDNSKSQVFLKMNSLQTDDTARYYCARDGYSNFHYYVMDYWGQGTSVTVSSGGGGSGGGGSGGGGSGGGGSDIVLTQSPASLAVSLGQRATISCRASESVEYYVTSLMQWYQQKPGQPPKLLISAASNVESGVPARFSGSGSGTDFSLNIHPVEEDDIAMYFCQQSRKVPWTFGGGTKLEIK
notes: Any tag on the free scFv used in SPR is not described; also called 2E12 scFv
On to B1, for which the Kd with CD28 mIg [1] was 9.69 nM; with CD28 mIg [2], 39.6 nM. For the same molecule, the koff with CD28 mIg [3] turned out to be 0.00338 s⁻¹. The molecule further displayed a kon in the assay with CD28 mIg [4] of 348000 M⁻¹ s⁻¹.

B2: Interceptor X0132 (X0130 + X0131) (other)
chain 1: QVQLKESGPGSVAPSQSLSITCTVSGFSLTGYGVNWVRQPPGKGLEWLGMIWGDGSTDYNSALKSRLSITKDNSKSQVFLKMNSLQTDDTARYYCARDGYSNFHYYVMDYWGQGTSVTVSSGGGGSGGGGSGGGGSGGGGSDIVLTQSPASLAVSLGQRATISCRASESVEYYVTSLMQWYQQKPGQPPKLLISAASNVESGVPARFSGSGSGTDFSLNIHPVEEDDIAMYFCQQSRKVPWTFGGGTKLEIKSSSASTKGPSVFPLAPSSKSTSGGTAALGCLVKDYFPEPVTVSWNSGALTSGVHTFPAVLQSSGLYSLSSVVTVPSSSLGTQTYICNVNHKPSNTKVDKKVRTEPKSSDKTHTCPPCPSGAPELLGGPSVFLFPPKPKDTLMISRTPEVTCVVVDVSHEDPEVKFNWYVDGVEVHNAKTKPREEQYNSTYRVVSVLTVLHQDWLNGKEYKCKVSNKALPAPIEKTISKAKGQPREPQVYTLPPSRDELTKNQVSLTCLVKGFYPSDIAVEWESNGQPENNYKTTPPVLDSDGSFFLYSKLTVDKSRWQQGNVFSCSVMHEALHNHYTQKSLSLSPGKSRTVAAPSVFIFPPSDEQLKSGTASVVCLLNNFYPREAKVQWKVDNALQSGNSQESVTEQDSKDSTYSLSSTLTLSKADYEKHKVYACEVTHQGLSSPVTKSFNRGE
chain 2: TVAAPSVFIFPPSDEQLKSGTASVVCLLNNFYPREAKVQWKVDNALQSGNSQESVTEQDSKDSTYSLSSTLTLSKADYEKHKVYACEVTHQGLSSPVTKSFNRGERTEPKSSDKTHTCPPCPSGAPELLGGPSVFLFPPKPKDTLMISRTPEVTCVVVDVSHEDPEVKFNWYVDGVEVHNAKTKPREEQYNSTYRVVSVLTVLHQDWLNGKEYKCKVSNKALPAPIEKTISKAKGQPREPQVYTLPPSRDELTKNQVSLTCLVKGFYPSDIAVEWESNGQPENNYKTTPPVLDSDGSFFLYSKLTVDKSRWQQGNVFSCSVMHEALHNHYTQKSLSLSPGKSRASTKGPSVFPLAPSSKSTSGGTAALGCLVKDYFPEPVTVSWNSGALTSGVHTFPAVLQSSGLYSLSSVVTVPSSSLGTQTYICNVNHKPSNTKVDKKV
notes: also called Heterodimer 2 (X0132)
Turning to B2, the Kd in the assay with CD28 mIg [1] is 43.7 nM; with CD28 mIg [2], 134 nM. Also, in the assay with CD28 mIg [3], the koff is 0.0065 s⁻¹. Also, the binding result in the assay with CD28 on Jurkat T cells was “binds”. Further, the kon with CD28 mIg [4] came out at 149000 M⁻¹ s⁻¹.

B3: Interceptor X0128 (X0120 + X0121) (other)
chain 1: QVQLKESGPGSVAPSQSLSITCTVSGFSLTGYGVNWVRQPPGKGLEWLGMIWGDGSTDYNSALKSRLSITKDNSKSQVFLKMNSLQTDDTARYYCARDGYSNFHYYVMDYWGQGTSVTVSSGGGGSGGGGSGGGGSGGGGSDIVLTQSPASLAVSLGQRATISCRASESVEYYVTSLMQWYQQKPGQPPKLLISAASNVESGVPARFSGSGSGTDFSLNIHPVEEDDIAMYFCQQSRKVPWTFGGGTKLEIKSSSASTKGPSVFPLAPSSKSTSGGTAALGCLVKDYFPEPVTVSWNSGALTSGVHTFPAVLQSSGLYSLSSVVTVPSSSLGTQTYICNVNHKPSNTKVDKKVRTEPKSSDKTHTCPPCPSGAPELLGGPSVFLFPPKPKDTLMISRTPEVTCVVVDVSHEDPEVKFNWYVDGVEVHNAKTKPREEQYNSTYRVVSVLTVLHQDWLNGKEYKCKVSNKALPAPIEKTISKAKGQPREPQVYTLPPSRDELTKNQVSLTCLVKGFYPSDIAVEWESNGQPENNYKTTPPVLDSDGSFFLYSKLTVDKSRWQQGNVFSCSVMHEALHNHYTQKSLSLSPGKSRASTKGPSVFPLAPSSKSTSGGTAALGCLVKDYFPEPVTVSWNSGALTSGVHTFPAVLQSSGLYSLSSVVTVPSSSLGTQTYICNVNHKPSNTKVDKKV
chain 2: TVAAPSVFIFPPSDEQLKSGTASVVCLLNNFYPREAKVQWKVDNALQSGNSQESVTEQDSKDSTYSLSSTLTLSKADYEKHKVYACEVTHQGLSSPVTKSFNRGERTEPKSSDKTHTCPPCPSGAPELLGGPSVFLFPPKPKDTLMISRTPEVTCVVVDVSHEDPEVKFNWYVDGVEVHNAKTKPREEQYNSTYRVVSVLTVLHQDWLNGKEYKCKVSNKALPAPIEKTISKAKGQPREPQVYTLPPSRDELTKNQVSLTCLVKGFYPSDIAVEWESNGQPENNYKTTPPVLDSDGSFFLYSKLTVDKSRWQQGNVFSCSVMHEALHNHYTQKSLSLSPGKSRTVAAPSVFIFPPSDEQLKSGTASVVCLLNNFYPREAKVQWKVDNALQSGNSQESVTEQDSKDSTYSLSSTLTLSKADYEKHKVYACEVTHQGLSSPVTKSFNRGE
For the molecule B3, the binding result with CD28 on Jurkat T cells is “binds”.

B4: Interceptor X0124 (X0112 + X0113) (other)
chain 1: QVQLKESGPGSVAPSQSLSITCTVSGFSLTGYGVNWVRQPPGKGLEWLGMIWGDGSTDYNSALKSRLSITKDNSKSQVFLKMNSLQTDDTARYYCARDGYSNFHYYVMDYWGQGTSVTVSSGGGGSGGGGSGGGGSGGGGSDIVLTQSPASLAVSLGQRATISCRASESVEYYVTSLMQWYQQKPGQPPKLLISAASNVESGVPARFSGSGSGTDFSLNIHPVEEDDIAMYFCQQSRKVPWTFGGGTKLEIKSSSASTKGPSVFPLAPSSKSTSGGTAALGCLVKDYFPEPVTVSWNSGALTSGVHTFPAVLQSSGLYSLSSVVTVPSSSLGTQTYICNVNHKPSNTKVDKKVRTEPKSSDKTHTCPPCPSGAPELLGGPSVFLFPPKPKDTLMISRTPEVTCVVVDVSHEDPEVKFNWYVDGVEVHNAKTKPREEQYNSTYRVVSVLTVLHQDWLNGKEYKCKVSNKALPAPIEKTISKAKGQPREPQVYTLPPSRDELTKNQVSLTCLVKGFYPSDIAVEWESNGQPENNYKTTPPVLDSDGSFFLYSKLTVDKSRWQQGNVFSCSVMHEALHNHYTQKSLSLSPGK
chain 2: TVAAPSVFIFPPSDEQLKSGTASVVCLLNNFYPREAKVQWKVDNALQSGNSQESVTEQDSKDSTYSLSSTLTLSKADYEKHKVYACEVTHQGLSSPVTKSFNRGERTEPKSSDKTHTCPPCPSGAPELLGGPSVFLFPPKPKDTLMISRTPEVTCVVVDVSHEDPEVKFNWYVDGVEVHNAKTKPREEQYNSTYRVVSVLTVLHQDWLNGKEYKCKVSNKALPAPIEKTISKAKGQPREPQVYTLPPSRDELTKNQVSLTCLVKGFYPSDIAVEWESNGQPENNYKTTPPVLDSDGSFFLYSKLTVDKSRWQQGNVFSCSVMHEALHNHYTQKSLSLSPGK
notes: Monovalent anti-CD28 polypeptide heterodimer; After protein A alone the preparation also holds X0113 homodimer; also called Heterodimer 1 (X0124); X00124
B4: the Kd with CD28 mIg [1] is 35.2 nM; with CD28 mIg [2], 104 nM. The molecule also gave an off-rate (koff) with CD28 mIg [3] of 0.00497 s⁻¹. Further, the kon in the assay with CD28 mIg [4] was 141000 M⁻¹ s⁻¹.

B5: 2E12 monoclonal antibody (mAb) (antibody, V domains shown)
VH: QVQLKESGPGSVAPSQSLSITCTVSGFSLTGYGVNWVRQPPGKGLEWLGMIWGDGSTDYNSALKSRLSITKDNSKSQVFLKMNSLQTDDTARYYCARDGYSNFHYYVMDYWGQGTSVTVSS
VL: DIVLTQSPASLAVSLGQRATISCRASESVEYYVTSLMQWYQQKPGQPPKLLISAASNVESGVPARFSGSGSGTDFSLNIHPVEEDDIAMYFCQQSRKVPWTFGGGTKLEIK
notes: also called 2E12 mAb; 2E12 Mab
Regarding B5, the Kd with CD28 mIg [5] was found to be 11.4 nM; with CD28 mIg [6] it was 6 nM. In the assay with CD28 mIg [7], this molecule yielded a kon of 176000 M⁻¹ s⁻¹. Further, the “fold affinity difference against the 2E12 SMIP” value with CD28 mIg [8] stood at 2 fold. The “kd (II)” value in the assay with CD28 mIg [9] was determined as 0.0127 s⁻¹. The “ka (II)” value in the assay with CD28 mIg [10] was 0.00367. Further, the koff with CD28 mIg [11] turned out to be 0.00104 s⁻¹.
